Laboratory results taken from article PMC6366758 (2019).

B1: R4.C6 monoclonal antibody (antibody, V domains shown)
VH: EVQLQQSGPELVKPGASVKISCKASGYAFSNSWMSWVKQRPGKGLEWIGRLFPADGDITYNGHFKDKAALTADKSSNTAYIQLSSLTSEDSAVYFCARMDNSEVFWGQGTLVTVSA
VL: DILLTQSQKFMSTSVGDRVSITCKASQNVRTGVSWYQRKPGQSPKALIYLASNRHTGVPDRFTGRGSGTDFTLTISEVQSEDLADYFCLQHWTVPYTFGGGTKLEIK
B2: Motavizumab (antibody, V domains shown)
VH: QVTLRESGPALVKPTQTLTLTCTFSGFSLSTAGMSVGWIRQPPGKALEWLADIWWDDKKHYNPSLKDRLTISKDTSKNQVVLKVTNMDPADTATYYCARDMIFNFYFDVWGQGTTVTVSS
VL: DIQMTQSPSTLSASVGDRVTITCSASSRVGYMHWYQQKPGKAPKLLIYDTSKLASGVPSRFSGSGSGTEFTLTISSLQPDDFATYYCFQGSGYPFTFGGGTKVEIK

Experiments:
Post-fusion F [1] = target: T1, Post-fusion F (human respiratory syncytial virus A2 …); assay: SPR
Post-fusion F [2] = target: T1, Post-fusion F; assay: SPR; remark: listed apart in the source

| Binder | koff (Post-fusion F [1]) [s⁻¹] | Kd (Post-fusion F [2]) [nM] |
| --- | --- | --- |
| B1 | 3.74e-05 |  |
| B2 | 1.44e-05 | 0.04 |
